One assay addresses T1, bovine trypsin (Bos taurus, UniProt P00760).
T1 sequence (P00760 24-246): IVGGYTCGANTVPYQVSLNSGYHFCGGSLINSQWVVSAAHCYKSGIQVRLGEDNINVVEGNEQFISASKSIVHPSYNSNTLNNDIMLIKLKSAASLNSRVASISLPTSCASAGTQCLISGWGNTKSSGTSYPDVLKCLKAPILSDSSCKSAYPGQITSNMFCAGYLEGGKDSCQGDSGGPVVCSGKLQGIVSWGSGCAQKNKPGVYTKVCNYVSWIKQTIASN
The assay is described as follows: Trypsin assay (spectrophotometric, N-Benzoyl-L-arginine p-nitroanilide substrate). The format is biochemical. Particulars: inhibitor/protease ratio between about 10/1 and 50/1. Here is the method: (§1) The inhibitory activity of the polypeptides of the present invention can be easily assayed using in vitro assays. In these types of spectrophotometric assays the activity of the serine protease is measured toward an appropriate p-nitroanilide substrate in the presence and absence of the peptide inhibitor. The enzyme catalyzed hydrolysis of the peptide p-nitroanilide substrate produces p-nitroanaline which results in an increase in absorbance which is monitored in the range of 405 to 410 nm. The rate of increase in absorbance is a measure of the enzymatic activity and the decrease in this rate relative to a suitable control is used to ascertain inhibition. The general assay procedure and details of the particular assays employed in the examples are provided in the Appendix following the examples. It is also possible to test the polypeptides in a functionally oriented assay that emulates in vivo conditions. Such an inhibition assay for elastase is also described in the Appendix.
(§2) Generalized Protocol Spectrophotometric Assays:
(§3) (1) Pipette 100 μl of enzyme solution into a disposable polystyrene cuvette (1 cm optical path length).
(§4) (2) Add (1900-X) μl of bufferto the cuvette, where X is the volume of test solution in microliters that is added in the next step.
(§5) Add X μl of test solution to the cuvette, where X ranges from 0 μl for the control to a maximum of about 500 μl. Incubate the solution for a period of 1 to 5 minutes at ambient temperature.
(§6) (4) Add 100 μl of substrate solution to the cuvette. Mix the contents by covering the cuvette with a piece of paraffin film and repeatedly inverting for a period of 5 to 15 seconds.
(§7) (5) Record the change in absorbance for about 5 minutes at either 405 or 410 nm, depending on the assay, with a spectrophotometer equipped with a suitable recording device.
(§8) The percent inhibition is calculated from the formula [formula] where (ΔA/min) is the initial rate of absorbance change.
(§9) (7) For more accurate quantitative determinations temperature control of the cuvette holders and the reagent solutions can be instituted.
(§10) (8) The test solution can be crude oxidized peptide prepared as described above, fractions from a chromatographic separation or purified polypeptides.
(A) Buffer Solution - Triethanolamine buffer consisting of 200 mM triethanolamine, 20 mM CaCl2, pH 7.8
(B) Substrate solution - Dissolve 50 mg of N-Benzoyl-L-arginine p-nitroanilide in 50 ml of water. Sonicate for 5 to 10 minutes to completely dissolve the solid material.
(C) Enzyme solution - Dissolve 1 mg of bovine trypsin in 10 ml of 0.001N HCl stored on ice during the assay.
(D) Test Solution - See general protocol, number 8.
Procedure: Use the above solutions in the general protocol described above.

Assay [1] addresses T2, PMN-derived human elastase activity (Homo sapiens, UniProt P08246).
T2 construct: Some assays employed elastase activity derived from freshly prepared neutrophils (PMN); endogenous in cells; host or cells: freshly prepared, stimulated neutrophils (PMN)
T2 sequence (P08246 30-267): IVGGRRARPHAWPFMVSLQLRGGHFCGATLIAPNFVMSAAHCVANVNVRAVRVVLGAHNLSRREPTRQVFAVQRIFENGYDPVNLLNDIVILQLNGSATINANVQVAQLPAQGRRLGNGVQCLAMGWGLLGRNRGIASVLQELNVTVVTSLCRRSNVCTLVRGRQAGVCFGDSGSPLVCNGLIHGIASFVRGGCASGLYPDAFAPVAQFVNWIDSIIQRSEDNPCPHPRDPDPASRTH
Description: 125I-Fibronectin assay with stimulated PMN as source of elastase activity. The format is cell-based. The settings on record: HLE equivalent of 4 nM, FIG. 3.
Procedure: The data points represent the mean of several (n=3 to 9) replicates compared to the control that contained no inhibitor.
This assay is designed to model the degradation of connective tissue. The assay is carried out essentially as described by Campbell, et al. (J. Clin. Invest., 1982, 70:845-52). Briefly, purified human plasma fibronectin (fn) is radiolabeled with ^125 I using Enzymobeads and conventional procedures. The desalted is diluted with fn to yield ca. cpm/ug. This material is further diluted with pH 9.6 barbital buffer and 200 ul (30 ug fn, 50000 cpm) is pipetted into the wells of a flat bottomed 96 well microtiter plate. The plates are dried for about 24 hours at 37° C. and unbound fn is removed with 2 washes of phosphate buffered saline (PBS). The plates are stored at 4° C. and are stable for at least 2 weeks.
For an assay each coated well is filled with a total volume of 200 μl. All measurements are carried out at optimal pH and buffer conditions. After addition of proteolytic activity with or without inhibitor the plate is incubated at 37° C. for 3 hours. The well contents are centrifuged and a 100 μl aliquot is counted for 1251gamma radiation. Some assays employed elastase activity derived from freshly prepared neutrophils (PMN). ln this case an activating agent to stimulate the PMN is present in the well and the PMN is added last. […]

Another assay addresses T3, purified HE (Homo sapiens, UniProt P08246).
T3 sequence (P08246 30-267): T2 sequence (P08246 30-267)
The assay is described as follows: 3H-Elastin assay with purified HE. The settings on record: FIG. 4. The format is biochemical. The protocol: The inhibition of elastolysis by peptide 8 was investigated using the ^3 H-elastin assay and purified HE.
Another, yet less sensitive, assay employs radiolabelled elastin as the solid substrate in order to imitate degradation of connective tissue.
Radiolabeling of bovine neck ligament elastin is carried out with tritiated sodium borohydride as described by Stone, et al. (Anal. Biochem., 1977, 80:572-577). Elastin coated microtiter plates are prepared essentially as described above for the fibronectin plates. The assay is run similarly except that the supernatant is added to a scintillation cocktail for counting. The linearity of the responses to purified HE is also tested.

In the next assay the target is bovine chymotrypsin (Bos taurus, UniProt P00766). Description: Chymotrypsin assay (spectrophotometric, p-nitroanilide substrate). The assay is classed as biochemical. The settings on record: inhibitor/protease ratio between about 10/1 and 50/1. The protocol: as §1, §2, §3, §4, §5, §6, §7, §8, §9, §10
(A) Buffer solution - triethanolamine buffer- See trypsin assay.
(B) Substrate Solution - Dissolve 25 mg of 3-carbomethoxypropionyl-L-arginyl-L-prolyl-L-tyrosine p-nitroanilide (Product No. S-2586, KabiVitrum AB, Stockholm, Sweden) in 23.6 ml of water
(C) Enzyme solution - Dissolve 1 mg of bovine chymotrypsin in 4 ml of 0.001N HCl. Prepare the final dilution by combining 0.1 ml of the stock chymotrypsin solution and 10 ml of 0.001N HCl. Store on ice or at 4° C.
Procedure: Use the above solutions in the general protocol
(2) See note 1 of the cathepsin G assay.
(3) 0.1M Tris-HCl, pH 7.8, 20 mM CaCl2, 0.05% triton X-100 can be substituted for the triethanolamine buffer.

As to “RVCPVILMKCKKDSDCLAECVCLEHGYCG (RVCPVILMKCKKDSDCLAECVCLEHGYCG) [Peptide 8]”, the “Inhibitory Activity Trypsin” value in the assay with bovine trypsin is reported as “- (Represents less than 10% inhibition)”. In addition, in assay [1], the “inhibition of 125I fibronectin degradation” value was “nearly the same inhibitory profile against purified human elastase (HE) and PMN-derived HE activity”. The inhibition of elastolysis result in the assay with purified HE is “equally effecive for these two connective tissue substrates”. The “Inhibitory Activity Chymotrypsin” value with bovine chymotrypsin is on record as “- (Represents less than 10% inhibition)”.

The record behind these values is patent publication US4829052A, “Serine protease inhibitors” (Monsanto Company, priority 1987, dated 1989).
